Test results: the Human Domainome abundance scans (Beltran et al. 2025)

B1: E3 ubiquitin-protein ligase NEDD4, residues 836 to 881; numbered along this chain, P46934 (parent)
chain: EIEQGFLPKGWEVRHAPNGRPFFIDHNTKTTTWEDPRLKIPAHLRG

Variants of: B1
Test: abundance fitness (aPCA) (normalised: wild type 0, dead -1); higher = more abundant; growth selection in yeast, the domain comes from the species named
Conditions: Homo sapiens

Abundance fitness, by site and new letter:
G10: Y -0.781 | P -0.829 | E -0.605 | V -0.816 | M -0.854 | N -0.12 | S -0.831 | K -0.886 | W -0.802 | H -0.493 | F -0.6 | T -1 | C -0.722 | I -1.17 | L -0.95 | D -0.81 | R -0.627
A16: Y -0.657 | N -0.435 | M -0.216 | K -0.698 | I -0.193 | L -0.345 | V -0.505 | C -0.11 | Q -0.353 | G -0.108 | E -0.387 | P -0.416 | T 0.127 | R -0.668
V13: R -0.149 | N -0.836 | S -0.399 | C -0.252 | W -0.842 | E 0.069 | H -0.724 | M 0.05 | L -0.122 | A -0.266 | G -0.747 | T -0.529 | K -0.032 | Q -0.135 | Y -0.799 | P -0.764 | F -0.159
P17: Q -0.585 | R -0.178 | H -0.276 | F -0.447 | N -0.308 | G -0.323 | L -0.197 | A -0.075 | K -0.115 | E 0.016 | C -0.295 | I -0.012
R14: S -0.297 | A -0.156 | T -0.562 | E -0.539 | P -0.407 | Y -0.407 | H -0.47 | Q -0.121 | N -0.783 | I -0.556 | W -0.458 | M -0.525 | G -0.114 | D -0.289 | F -0.272 | C -0.07
L7: R -1.03 | W -0.577 | N -1.01 | Y -0.915 | P -0.473 | Q -0.38 | S -0.573 | T -0.441
W11: N -0.106 | K -0.409 | M -0.563 | L -0.648 | F -0.795 | G -0.575 | Q -0.455 | I -0.459 | E -0.326 | T -0.792 | S -0.424 | D -0.539 | A -0.79 | P -0.817 | C -0.418 | H -0.761
H15: D -0.031 | M -0.34 | W -0.133 | T -0.047 | I -0.051 | A -0.095 | Y -0.147 | G -0.508 | N -0.113 | Q -0.257 | R -0.004 | P -0.507 | K 0.081 | C 0.166 | E -0.116 | L -0.013 | F -0.074
K9: T -0.237 | N -0.112 | E -0.119 | G -0.252 | L -0.257 | M -0.344 | H -0.251 | A -0.124 | S -0.048 | F -0.825 | P -0.211 | Q -0.078 | C -0.268 | R -0.205 | Y -0.316 | W -0.52
E12: H -0.227 | G -0.882 | W -0.692 | R -0.793 | A -0.533 | S -0.278 | Q -0.307 | L -0.942 | P -0.967 | F -0.352 | T -0.274 | I -0.633 | N -0.949 | C -0.758 | M -0.89 | V -0.526 | K -0.599
P8: C -0.969 | H 0.162 | W -0.856 | G -0.625 | D -0.626 | F -0.341 | I -0.623 | K 0.223 | M -0.692 | N -0.611 | L -0.988 | Q -0.814 | E -0.594 | V -0.96 | R -0.648 | T -0.432 | A -0.766
